Experimental data taken from patent US20040006782A1.

Molecular target: nicotinic acetylcholine receptor containing the alpha6 subunit (mouse, native in brain of wild type animals) (mouse), Q9R0W9
Sequence (Q9R0W9 31-494, chain 1 of 2): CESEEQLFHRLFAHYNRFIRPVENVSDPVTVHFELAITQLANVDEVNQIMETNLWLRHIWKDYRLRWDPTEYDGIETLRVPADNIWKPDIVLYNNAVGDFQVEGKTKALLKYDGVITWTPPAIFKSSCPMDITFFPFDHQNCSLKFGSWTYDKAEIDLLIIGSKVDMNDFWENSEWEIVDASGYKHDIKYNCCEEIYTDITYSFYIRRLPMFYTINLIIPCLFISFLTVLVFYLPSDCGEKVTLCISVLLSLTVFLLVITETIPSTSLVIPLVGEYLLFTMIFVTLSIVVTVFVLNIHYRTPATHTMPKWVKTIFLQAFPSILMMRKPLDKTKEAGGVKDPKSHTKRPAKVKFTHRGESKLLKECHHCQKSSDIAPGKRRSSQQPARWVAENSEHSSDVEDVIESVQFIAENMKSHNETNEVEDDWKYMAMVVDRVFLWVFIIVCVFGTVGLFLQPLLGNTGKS
Sequence (Q9ERK7 26-501, chain 2 of 2, further chain): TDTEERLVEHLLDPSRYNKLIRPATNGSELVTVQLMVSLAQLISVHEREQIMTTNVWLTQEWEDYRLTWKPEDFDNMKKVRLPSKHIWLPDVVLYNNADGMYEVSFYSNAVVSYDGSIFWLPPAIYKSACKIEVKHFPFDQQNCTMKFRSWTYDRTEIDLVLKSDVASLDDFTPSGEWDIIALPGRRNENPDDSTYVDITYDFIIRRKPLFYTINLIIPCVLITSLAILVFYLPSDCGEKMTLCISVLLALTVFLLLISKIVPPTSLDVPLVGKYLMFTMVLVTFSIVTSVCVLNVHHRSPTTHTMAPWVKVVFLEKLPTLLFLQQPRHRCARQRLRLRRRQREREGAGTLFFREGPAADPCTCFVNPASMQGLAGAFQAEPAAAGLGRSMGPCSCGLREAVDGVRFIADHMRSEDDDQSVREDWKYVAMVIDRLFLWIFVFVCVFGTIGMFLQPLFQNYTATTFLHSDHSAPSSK

B1: α-conotoxin MII, P56636 49-64 (peptide)
peptide: GCCSNPVCHLEHSNLC
modifications: not checked
- share of epibatidine binding sites sensitive to αCtxMII: 20%
